Experimental data: patent US20170173105A1, “AUTOASSEMBLING PEPTIDES FOR THE TREATMENT OF PULMONARY LEAKAGE” (3-D MATRIX, LTD., priority 2014, published 2017)

Key:
[1] = Appearance of 1.5% peptide solutions with various salts at room temperature; type: physicochemical; conditions: for Appearance: room temperature
Method: The effect of salt ionic strength level on the properties of peptide solutions was evaluated to identify optimized salt ionic strength levels for the peptides as described herein. Increasing the salt ionic strength level of PuraMatrix® and other peptides may generally improve its function and mechanical strength for various clinical applications. To adjust the salt ionic strength of the peptide solutions by way of example, various salt buffer solutions including NaCl, KCl, MgCl2, CaCl2 and DPBS (10×) were added to 2 mL of 1.5% peptide solutions.

[2] = Rheological properties of peptide solutions and hydrogels after salt ionic strength adjustment; type: physicochemical
Method: Based on the visual observation of the effect of salt ionic strength on the properties of the peptide solutions, the effect on the rheological properties of the peptide solutions after adjusting their ionic strength level with NaCl to 0.7 M (PuraMatrix®), 0.2 M (KLD12) or 0.02 M (IEIK13), which is closely below the critical ionic strength at which each peptide becomes cloudy, was evaluated. If the ionic strength levels with NaCl of peptide solutions are higher than 0.9 M (PuraMatrix®), 0.3 M (KLD12) or 0.03 M (IEIK13), the peptide solution begin phase separation becoming cloudy and weak. The rheological property of PuraMatrix®, KLD12 and IEIK13 solutions was higher after adjusting their ionic strength level with NaCl to 0.7 M (PuraMatrix®), 0.2 M (KLD12) or 0.02 M (IEIK13), The results are shown in FIG. 10 for KLD12 1%, FIG. 11 for IEIK13 1%, and FIG. 12 for PuraMatrix® 1%, respectively. Frequency sweep tests were performed from 1 rad/s to 10 rad/s at 1 Pa.
Based on the results of the effect on the rheological properties of the peptide solutions after adjusting their ionic strength level with NaCl to 0.7 M (PuraMatrix®), 0.2 M (KLD12) or 0.02 M (IEIK13), the effect on the rheological properties of the peptide solution at various salt ionic strengths was evaluated. […] The results are shown in FIG. 13 for PuraMatrix® 1% solution and in FIG. 14 for IEIK13 1% solution. Frequency sweep tests were performed from 1 rad/sec to 10 rad/sec at 1 Pa and the storage modulus at 1 rad/sec was selected for data.
Based on the results of the effect on the rheological properties of the peptide solutions after adjusting their ionic strength levels, the effect on the rheological properties of the peptide hydrogels after DMEM treatment for 10 min was evaluated. […] The results are shown in FIG. 15 for PuraMatrix® 1% hydrogels and in FIG. 16 for IEIK13 1% hydrogels, both after DMEM treatment for 10 min Frequency sweep tests were performed from 1 rad/sec to 10 rad/sec at 1 Pa and the storage modulus at 1 rad/sec was selected for data.
Based on the results of the effect on the rheological properties of the peptide solutions and hydrogels after adjusting their ionic strength levels with NaCl, the effect of various salts (KCl, MgCl2, and CaCl2) was also evaluated. The rheological property of PuraMatrix® solutions increases with ionic strength adjustment at 0.15 M of all the salts. Increases of the rheological property of PuraMatrix® solutions with various salts were not predominantly different. However, increases of the rheological property of PuraMatrix® solutions may vary depending on the salting out constant, K of each salt. Constant K is a constant in Cohen's equation: log S=B−KI, where S is solubility, B is idealized solubility, K is salting out constant, and I is ionic strength. With a higher value of constant K and ionic strength of salts, solubility of the peptide may decrease resulting in strong peptide self-assembly with increased hydrophobic effect and higher rheological properties of the peptide solution. The constant K of NaCl may be higher than the other salts. […] The results are shown in FIG. 17 for PuraMatrix® 1% solution before DMEM treatment, and in FIG. 18 for PuraMatrix® 1% hydrogels after DMEM treatment for 10 min.
In accordance with one or more embodiments, IEIK13, KLD12, and PuraMatrix® may be dissolved both in salt buffer such as NaCl and at an elevated pH level adjusted with alkali salt buffer such as NaOH to keep their salt ionic strength under their critical salt points as well as their pH level to about 2.5˜4.0, so that they may have stiffer properties. With respect to PuraMatrix®, […] and IEIK13, the peptide solutions are still clear with 0.9% NaCl (ionic strength: 0.15 M) at pH 3.4 adjusted with NaOH. […] The effect of salt ionic strength and pH adjustment on the rheological properties of PuraMatrix® 2.5% solution are shown in FIG. 20. […]

With “Arg-Ala-Asp-Ala-Arg-Ala-Asp-Ala-Arg-Ala-Asp-Ala-Arg-Ala-Asp-Ala [PuraMatrix ®]” the Appearance ([1]; CaCl2 0 M, ionic strength 0 M, PuraMatrix 1.5%) was “Clear, thick gel”, the Appearance ([1]; CaCl2 0.05 M, ionic strength 0.15 M, PuraMatrix 1.48%) was “Clear, thick, stiffer gel” and the Appearance ([1]; CaCl2 0.1 M, ionic strength 0.3 M, PuraMatrix 1.45%) was “Clear, thick, stiffer gel”. The Appearance ([1]; CaCl2 0.15 M, ionic strength 0.45 M, PuraMatrix 1.43%) was “Clear, thick, stiffer gel”, the Appearance ([1]; CaCl2 0.2 M, ionic strength 0.6 M, PuraMatrix 1.4%) was “Clear, thick, stiffer gel” and the Appearance ([1]; CaCl2 0.25 M, ionic strength 0.75 M, PuraMatrix 1.38%) was “Clear, thick, stiffer gel”. For the same substance, the Appearance ([1]; CaCl2 0.3 M, ionic strength 0.9 M, PuraMatrix 1.35%) was “Clear, thick, stiffer gel”, the Appearance ([1]; CaCl2 0.35 M, ionic strength 1.05 M, PuraMatrix 1.32%) was “Clear, thick, stiffer gel” and the Appearance ([1]; CaCl2 0.383 M, ionic strength 1.15 M, PuraMatrix 1.31%) was “Clear, thick, stiffer gel”. The Appearance ([1]; CaCl2 0.4 M, ionic strength 1.2 M, PuraMatrix 1.3%) was “Slightly cloudy, thick, stiffer gel”, the Appearance ([1]; CaCl2 0.417 M, ionic strength 1.25 M, PuraMatrix 1.29%) was “Slightly cloudy, brittle gel” and the Appearance ([1]; CaCl2 0.433 M, ionic strength 1.3 M, PuraMatrix 1.28%) was “Cloudy, phase-separated”. For the same substance, the Appearance ([1]; DPBS (pH 3.2) 0 M, ionic strength 0 M, PuraMatrix 1.5%) was “Clear, thick gel”, the Appearance ([1]; DPBS (pH 3.2) 0.15 M, ionic strength 0.15 M, PuraMatrix 1.35%) was “Clear, thick, stiffer gel” and the Appearance ([1]; DPBS (pH 3.2) 0.3 M, ionic strength 0.3 M, PuraMatrix 1.2%) was “Clear, thick, stiffer gel”. For the same substance, the Appearance ([1]; DPBS (pH 3.2) 0.45 M, ionic strength 0.45 M, PuraMatrix 1.05%) was “Clear, thick, stiffer gel”, the Appearance ([1]; DPBS (pH 3.2) 0.6 M, ionic strength 0.6 M, PuraMatrix 0.9%) was “Clear, thick, stiffer gel” and the Appearance ([1]; DPBS (pH 3.2) 0.75 M, ionic strength 0.75 M, PuraMatrix 0.75%) was “Clear, thick, stiffer gel”. The Appearance ([1]; DPBS (pH 3.2) 0.9 M, ionic strength 0.9 M, PuraMatrix 0.6%) was “Clear, thick, stiffer gel”, the Appearance ([1]; DPBS (pH 3.2) 0.95 M, ionic strength 0.95 M, PuraMatrix 0.55%) was “Slightly cloudy, brittle gel” and the Appearance ([1]; DPBS (pH 3.2) 1.0 M, ionic strength 1.0 M, PuraMatrix 0.5%) was “Cloudy, phase-separated”. The Appearance ([1]; KCl 0 M, ionic strength 0 M, PuraMatrix 1.5%) was “Clear, thick gel”, the Appearance ([1]; KCl 0.15 M, ionic strength 0.15 M, PuraMatrix 1.43%) was “Clear, thick, stiffer gel” and the Appearance ([1]; KCl 0.3 M, ionic strength 0.3 M, PuraMatrix 1.35%) was “Clear, thick, stiffer gel”. For the same substance, the Appearance ([1]; KCl 0.45 M, ionic strength 0.45 M, PuraMatrix 1.27%) was “Clear, thick, stiffer gel”, the Appearance ([1]; KCl 0.6 M, ionic strength 0.6 M, PuraMatrix 1.2%) was “Clear, thick, stiffer gel” and the Appearance ([1]; KCl 0.75 M, ionic strength 0.75 M, PuraMatrix 1.13%) was “Clear, thick, stiffer gel”. For the same substance, the Appearance ([1]; KCl 0.9 M, ionic strength 0.9 M, PuraMatrix 1.05%) was “Clear, thick, stiffer gel”, the Appearance ([1]; KCl 0.95 M, ionic strength 0.95 M, PuraMatrix 1.03%) was “Clear, thick, stiffer gel” and the Appearance ([1]; KCl 1.0 M, ionic strength 1.0 M, PuraMatrix 1.0%) was “Clear, thick, stiffer gel”. The Appearance ([1]; KCl 1.05 M, ionic strength 1.05 M, PuraMatrix 0.98%) was “Slightly cloudy, thick, stiffer gel”, the Appearance ([1]; KCl 1.1 M, ionic strength 1.1 M, PuraMatrix 0.95%) was “Slightly cloudy, brittle gel” and the Appearance ([1]; KCl 1.15 M, ionic strength 1.15 M, PuraMatrix 0.93%) was “Cloudy, phase-separated”. For the same substance, the Appearance ([1]; MgCl2 0 M, ionic strength 0 M, PuraMatrix 1.5%) was “Clear, thick gel”, the Appearance ([1]; MgCl2 0.05 M, ionic strength 0.15 M, PuraMatrix 1.48%) was “Clear, thick, stiffer gel” and the Appearance ([1]; MgCl2 0.1 M, ionic strength 0.3 M, PuraMatrix 1.45%) was “Clear, thick, stiffer gel”. For the same substance, the Appearance ([1]; MgCl2 0.15 M, ionic strength 0.45 M, PuraMatrix 1.43%) was “Clear, thick, stiffer gel”, the Appearance ([1]; MgCl2 0.2 M, ionic strength 0.6 M, PuraMatrix 1.4%) was “Clear, thick, stiffer gel” and the Appearance ([1]; MgCl2 0.25 M, ionic strength 0.75 M, PuraMatrix 1.38%) was “Clear, thick, stiffer gel”. For the same substance, the Appearance ([1]; MgCl2 0.3 M, ionic strength 0.9 M, PuraMatrix 1.35%) was “Clear, thick, stiffer gel”, the Appearance ([1]; MgCl2 0.35 M, ionic strength 1.05 M, PuraMatrix 1.32%) was “Clear, thick, stiffer gel” and the Appearance ([1]; MgCl2 0.383 M, ionic strength 1.15 M, PuraMatrix 1.31%) was “Clear, thick, stiffer gel”. The Appearance ([1]; MgCl2 0.4 M, ionic strength 1.2 M, PuraMatrix 1.3%) was “Slightly cloudy, thick, stiffer gel”, the Appearance ([1]; MgCl2 0.417 M, ionic strength 1.25 M, PuraMatrix 1.29%) was “Slightly cloudy, brittle gel” and the Appearance ([1]; MgCl2 0.433 M, ionic strength 1.3 M, PuraMatrix 1.28%) was “Cloudy, phase-separated”. For the same substance, the Appearance ([1]; NaCl 0 M, ionic strength 0 M, PuraMatrix 1.5%) was “Clear, thick gel”, the Appearance ([1]; NaCl 0.15 M, ionic strength 0.15 M, PuraMatrix 1.43%) was “Clear, thick, stiffer gel” and the Appearance ([1]; NaCl 0.3 M, ionic strength 0.3 M, PuraMatrix 1.35%) was “Clear, thick, stiffer gel”. For the same substance, the Appearance ([1]; NaCl 0.45 M, ionic strength 0.45 M, PuraMatrix 1.27%) was “Clear, thick, stiffer gel”, the Appearance ([1]; NaCl 0.6 M, ionic strength 0.6 M, PuraMatrix 1.2%) was “Clear, thick, stiffer gel” and the Appearance ([1]; NaCl 0.75 M, ionic strength 0.75 M, PuraMatrix 1.13%) was “Clear, thick, stiffer gel”. The Appearance ([1]; NaCl 0.8 M, ionic strength 0.8 M, PuraMatrix 1.10%) was “Clear, thick, stiffer gel”, the Appearance ([1]; NaCl 0.85 M, ionic strength 0.85 M, PuraMatrix 1.08%) was “Clear, thick, stiffer gel” and the Appearance ([1]; NaCl 0.9 M, ionic strength 0.9 M, PuraMatrix 1.05%) was “Slightly cloudy, brittle gel”. For the same substance, the Appearance ([1]; NaCl 0.95 M, ionic strength 0.95 M, PuraMatrix 1.03%) was “Cloudy, phase-separated”, the Appearance ([1]; NaCl 1.0 M, ionic strength 1.0 M, PuraMatrix 1.0%) was “Cloudy, phase-separated” and the “apparent stiffness on salt ionic strength increase” value ([1]; up to the ionic strength at which solutions stay clear) was “increased”. For the same substance, the “rheological property of solutions with NaCl compared with KCl and CaCl2” value ([2]; 0.15 M ionic strength, 1%) was “slightly higher”, the “appearance of peptide solutions with salt and pH adjustment” value ([2]; 0.9% NaCl (ionic strength: 0.15 M) at pH 3.4 adjusted with NaOH) was “still clear” and the “rheological property of hydrogels after DMEM treatment at various ionic strengths” value ([2]; 1% hydrogels, DMEM treatment for 10 min) was “increased with ionic strength adjustment up to 0.7 M, while decreases above 0.7 M”. The “rheological property of 1% solutions at various salt ionic strengths” value ([2]; 1% solution, storage modulus at 1 rad/sec) was “increases with ionic strength adjustment up to 0.7 M, while decreases above 0.7 M”, the “rheological property with salt and pH adjustment” value ([2]; 2.5% solution, 0.9% NaCl (0.15 M) at pH 3.4 vs control and only NaCl 0.9%) was “stiffer” and the “ionic strength level with NaCl at which the peptide solution begins phase separation becoming cloudy and weak” value ([2]; NaCl) was “higher than 0.9 M”. The “rheological property of solutions after ionic strength adjustment with NaCl” value ([2]; NaCl to 0.7 M (PuraMatrix®), 0.2 M (KLD12) or 0.02 M (IEIK13), 1% solutions) was “higher”, the “gelation with DMEM treatment” value ([2]; above 0.9 M of NaCl ionic strength) was “no gelation” and the “rheological property of solutions with various salts” value ([2]; ionic strength adjustment at 0.15 M of all the salts (NaCl, KCl, MgCl2, CaCl2), 1%) was “increases”.
